Stoichiometry N data for five substances are collected here from paper doi:10.1101/2022.01.21.477263.

The stoichiometry N is a count of units in the complex or per binding partner.

Holding throughout (experiment): crystal structure
Assay [1] has as its target HIV-1 (M) CA R120 (arginine restored at CA position 120) (HIV-1 group M).
Assay [2] has as its target HIV-1 (M-group) CA Q50Y, disulfide-stabilised hexamer construct (A14C, E45C, Q50Y, W184A, M185A) (HIV-1 group M).
Assay [3] addresses HIV-1 (O-group) CA, disulfide-stabilised hexamer construct (A14C, E45C, W185A, M186A) (HIV-1 group O).
In assay [4] the target is SIVcpz CA, disulfide-stabilised hexamer construct (P14C, E45C, W184A, M185A) (SIVcpz (SIVcpzPtt)).
Assay [5] concerns the target SIVmac CA, disulfide-stabilised hexamer construct (P13C, E44C, W182A, M183A) (SIVmac).

“HIV-1 (M) CA R120 (arginine restored at CA position 120) (natural protein)” registered a stoichiometry N in assay [1] of 6. In assay [2], “HIV-1 (M-group) CA Q50Y, disulfide-stabilised hexamer construct (A14C, E45C, Q50Y, W184A, M185A) (natural protein)” came in with a stoichiometry N of 6. In assay [3], “HIV-1 (O-group) CA, disulfide-stabilised hexamer construct (A14C, E45C, W185A, M186A) (natural protein)” displayed a stoichiometry N of 6. On to “SIVcpz CA, disulfide-stabilised hexamer construct (P14C, E45C, W184A, M185A) (natural protein)”, for which, in assay [4], the stoichiometry N was found to be 6. “SIVmac CA, disulfide-stabilised hexamer construct (P13C, E44C, W182A, M183A) (natural protein)”: in assay [5], the stoichiometry N was found to be 6.
